T1: dog FAPα on Expi293F cells (dog (Canis familiaris), UniProt A5D7B7 1-760 (bovine entry))
T1 chain: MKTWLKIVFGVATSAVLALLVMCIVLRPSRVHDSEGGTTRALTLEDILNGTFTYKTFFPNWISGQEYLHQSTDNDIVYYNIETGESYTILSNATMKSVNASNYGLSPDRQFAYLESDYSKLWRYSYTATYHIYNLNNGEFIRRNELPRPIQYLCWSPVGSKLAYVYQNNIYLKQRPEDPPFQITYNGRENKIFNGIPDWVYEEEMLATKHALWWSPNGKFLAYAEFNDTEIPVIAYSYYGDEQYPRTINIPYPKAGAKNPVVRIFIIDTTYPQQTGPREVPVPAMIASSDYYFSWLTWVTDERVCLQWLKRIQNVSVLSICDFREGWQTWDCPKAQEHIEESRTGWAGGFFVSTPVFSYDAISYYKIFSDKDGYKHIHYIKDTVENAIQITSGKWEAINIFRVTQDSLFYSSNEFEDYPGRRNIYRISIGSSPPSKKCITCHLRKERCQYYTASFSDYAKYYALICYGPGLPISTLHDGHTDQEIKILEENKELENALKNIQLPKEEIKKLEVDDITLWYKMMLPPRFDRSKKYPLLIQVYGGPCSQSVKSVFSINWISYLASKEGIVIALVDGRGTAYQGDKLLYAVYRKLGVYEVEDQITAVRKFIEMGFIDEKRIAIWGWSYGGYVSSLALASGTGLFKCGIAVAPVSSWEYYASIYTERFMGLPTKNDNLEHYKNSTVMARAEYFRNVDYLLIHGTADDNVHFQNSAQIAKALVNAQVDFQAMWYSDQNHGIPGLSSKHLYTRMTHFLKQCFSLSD


Molecular target: T1, dog FAPα on Expi293F cells
Test: flow cytometry on Expi293F cells transiently expressing dog FAPα, gMFI PE
Protocol: Binding of BisG1-FAPα-FERL/DR4-FERR, BisG1-FAPα-FEAL/b12-FEAR and IgG1-FAPα-FERL to FAPα of species commonly used for nonclinical toxicology studies was assessed by flow cytometry using Expi293F cells transiently expressing FAPα from different animal species. IgG1-b12 was included as negative control.
Expi293F cells expressing recombinant FAPα from various species (human, cynomolgus monkey, dog, pig, rat or mouse) were seeded (20,000 cells/well) in 96-Well round bottom plates (Greiner Bio-one, Cat #650101). Antibody dilutions were prepared using FACS buffer, consisting of PBS (Capricorn Scientific, Cat #PBS-10XA, diluted to 1×PBS in distilled water)+1% BSA (Roche, Cat #10735086001)+0.02% Sodium Azide (Bio-World, Cat #41920044-3). Plates were centrifuged, supernatant was removed, and cells were resuspended in 100 μL of antibody dilutions (concentration range 30-0.00017 μg/mL with three-fold serial dilutions using FACS buffer) of BisG1-FAPα-FERL/DR4-FERR, BisG1-FAPα-FEAL/b12-FEAR, IgG1-FAPα-FERL and IgG1-b12 and incubated for 30 min at 4° C. […] After 30 min incubation at 4° C., cells were washed with FACS buffer and resuspended in FACS buffer supplemented with TO-PRO-3 Iodide viability marker (Invitrogen, Cat #T3605, diluted 1:4,000). Antibody binding to viable cells (gMFI of PE on TO-PRO-3 negative cells) was analyzed by flow cytometry on a FACS Celesta and FACS_Diva software (first two experiments) or iQue® 3 and FlowJo software (last experiment). gMFI was determined and visualized using GraphPad Prism. Binding curves were analyzed using nonlinear regression analysis. The concentration (pg/mL) at which 50% of the maximal effect was observed (EC₅₀) was derived from the fitted curves.

Row | Binder | binding result
1 | BisG1-FAPα-FERL/DR4-FERR (bispecific antibody, human IgG1, kappa, lambda, Human IgG1 bispecific made by controlled Fab-arm exchange of IgG1-FAPα-FERL and IgG1-DR4-FERR; monovalent for FAPα and for DR4; also called GEN1057) heavy 1: EVQLLESGGGLVQPGGSPRLSCEASGFTFSSYALSWVRQAPGKGLEWVSAISGSGGGRYYADSVKGRFTISRDNSKNTLFLQMNSLRAEDTAVYYCAKEGYSSSGTYWDHWGQGTLVTVSSASTKGPSVFPLAPSSKSTSGGTAALGCLVKDYFPEPVTVSWNSGALTSGVHTFPAVLQSSGLYSLSSVVTVPSSSLGTQTYICNVNHKPSNTKVDKRVEPKSCDKTHTCPPCPAPEFERGPSVFLFPPKPKDTLMISRTPEVTCVVVDVSHEDPEVKFNWYVDGVEVHNAKTKPREEQYNSTYRVVSVLTVLHQDWLNGKEYKCKVSNKALPAPIEKTISKAKGQPREPQVYTLPPSREEMTKNQVSLTCLVKGFYPSDIAVEWESNGQPENNYKTTPPVLDSDGSFLLYSKLTVDKSRWQQGNVFSCSVMHEALHNHYTQKSLSLSPG light 1: AIQMTQSPSSVSASVGDRVTITCRASQGVSSWLAWYQQKPGRAPKLLIYVASTLQSGVPSRFSGSGSGTDFTLTINSLQPEDFATYYCQQANSFPPTFGQGTRLEMKRTVAAPSVFIFPPSDEQLKSGTASVVCLLNNFYPREAKVQWKVDNALQSGNSQESVTEQDSKDSTYSLSSTLTLSKADYEKHKVYACEVTHQGLSSPVTKSFNRGEC heavy 2: QVQLQESGPGLVKPSGTLSLTCAVSGGSISSYSWWSWIRQPPGKGLEWIGELYHSGSTNYNPSLKSRVTISVDKSKNQFSLKLRSVTAADTAVYYCVRGVATIDYWGQGTLVTVSSASTKGPSVFPLAPSSKSTSGGTAALGCLVKDYFPEPVTVSWNSGALTSGVHTFPAVLQSSGLYSLSSVVTVPSSSLGTQTYICNVNHKPSNTKVDKRVEPKSCDKTHTCPPCPAPEFERGPSVFLFPPKPKDTLMISRTPEVTCVVVDVSHEDPEVKFNWYVDGVEVHNAKTKPREEQYNSTYRVVSVLTVLHQDWLNGKEYKCKVSNKALPAPIEKTISKAKGQPREPQVYTLPPSREEMTKNQVSLTCLVKGFYPSDIAVEWESNGQPENNYKTTPPVLDSDGSFFLYSRLTVDKSRWQQGNVFSCSVMHEALHNHYTQKSLSLSPG light 2: QSALTQPPSASGSPGQSVTISCTGTSSDVGGYNFVSWYQQDPGKAPKLLIYEVTKRPSGVPDRFSGSKSGNTASLTVSGLQAEDEADYYCSSYAGSNNVMFGGGTKLTVLGQPKAAPSVTLFPPSSEELQANKATLVCLISDFYPGAVTVAWKADSSPVKAGVETTTPSKQSNNKYAASSYLSLTPEQWKSHRSYSCQVTHEGSTVEKTVAPTECS | binds
2 | IgG1-FAPα-FERL (antibody, Bivalent monoclonal IgG1 kappa) heavy: EVQLLESGGGLVQPGGSPRLSCEASGFTFSSYALSWVRQAPGKGLEWVSAISGSGGGRYYADSVKGRFTISRDNSKNTLFLQMNSLRAEDTAVYYCAKEGYSSSGTYWDHWGQGTLVTVSSASTKGPSVFPLAPSSKSTSGGTAALGCLVKDYFPEPVTVSWNSGALTSGVHTFPAVLQSSGLYSLSSVVTVPSSSLGTQTYICNVNHKPSNTKVDKRVEPKSCDKTHTCPPCPAPEFERGPSVFLFPPKPKDTLMISRTPEVTCVVVDVSHEDPEVKFNWYVDGVEVHNAKTKPREEQYNSTYRVVSVLTVLHQDWLNGKEYKCKVSNKALPAPIEKTISKAKGQPREPQVYTLPPSREEMTKNQVSLTCLVKGFYPSDIAVEWESNGQPENNYKTTPPVLDSDGSFLLYSKLTVDKSRWQQGNVFSCSVMHEALHNHYTQKSLSLSPG light: AIQMTQSPSSVSASVGDRVTITCRASQGVSSWLAWYQQKPGRAPKLLIYVASTLQSGVPSRFSGSGSGTDFTLTINSLQPEDFATYYCQQANSFPPTFGQGTRLEMKRTVAAPSVFIFPPSDEQLKSGTASVVCLLNNFYPREAKVQWKVDNALQSGNSQESVTEQDSKDSTYSLSSTLTLSKADYEKHKVYACEVTHQGLSSPVTKSFNRGEC | binds
3 | BisG1-FAPα-FEAL/b12-FEAR (bispecific antibody, human IgG1, kappa, Fab-arm exchange of IgG1-FAPα-FEAL and IgG1-b12-FEAR) heavy 1: EVQLLESGGGLVQPGGSPRLSCEASGFTFSSYALSWVRQAPGKGLEWVSAISGSGGGRYYADSVKGRFTISRDNSKNTLFLQMNSLRAEDTAVYYCAKEGYSSSGTYWDHWGQGTLVTVSSASTKGPSVFPLAPSSKSTSGGTAALGCLVKDYFPEPVTVSWNSGALTSGVHTFPAVLQSSGLYSLSSVVTVPSSSLGTQTYICNVNHKPSNTKVDKRVEPKSCDKTHTCPPCPAPEFEGGPSVFLFPPKPKDTLMISRTPEVTCVVVAVSHEDPEVKFNWYVDGVEVHNAKTKPREEQYNSTYRVVSVLTVLHQDWLNGKEYKCKVSNKALPAPIEKTISKAKGQPREPQVYTLPPSREEMTKNQVSLTCLVKGFYPSDIAVEWESNGQPENNYKTTPPVLDSDGSFLLYSKLTVDKSRWQQGNVFSCSVMHEALHNHYTQKSLSLSPG light 1: AIQMTQSPSSVSASVGDRVTITCRASQGVSSWLAWYQQKPGRAPKLLIYVASTLQSGVPSRFSGSGSGTDFTLTINSLQPEDFATYYCQQANSFPPTFGQGTRLEMKRTVAAPSVFIFPPSDEQLKSGTASVVCLLNNFYPREAKVQWKVDNALQSGNSQESVTEQDSKDSTYSLSSTLTLSKADYEKHKVYACEVTHQGLSSPVTKSFNRGEC heavy 2: QVQLVQSGAEVKKPGASVKVSCQASGYRFSNFVIHWVRQAPGQRFEWMGWINPYNGNKEFSAKFQDRVTFTADTSANTAYMELRSLRSADTAVYYCARVGPYSWDDSPQDNYYMDVWGKGTTVIVSSASTKGPSVFPLAPSSKSTSGGTAALGCLVKDYFPEPVTVSWNSGALTSGVHTFPAVLQSSGLYSLSSVVTVPSSSLGTQTYICNVNHKPSNTKVDKRVEPKSCDKTHTCPPCPAPEFEGGPSVFLFPPKPKDTLMISRTPEVTCVVVAVSHEDPEVKFNWYVDGVEVHNAKTKPREEQYNSTYRVVSVLTVLHQDWLNGKEYKCKVSNKALPAPIEKTISKAKGQPREPQVYTLPPSREEMTKNQVSLTCLVKGFYPSDIAVEWESNGQPENNYKTTPPVLDSDGSFFLYSRLTVDKSRWQQGNVFSCSVMHEALHNHYTQKSLSLSPG light 2: EIVLTQSPGTLSLSPGERATFSCRSSHSIRSRRVAWYQHKPGQAPRLVIHGVSNRASGISDRFSGSGSGTDFTLTITRVEPEDFALYYCQVYGASSYTFGQGTKLERKRTVAAPSVFIFPPSDEQLKSGTASVVCLLNNFYPREAKVQWKVDNALQSGNSQESVTEQDSKDSTYSLSSTLTLSKADYEKHKVYACEVTHQGLSSPVTKSFNRGEC | binds
